These results are taken from patent US20240301049A1 (Ablynx, published 2024).

The target in one experiment is T1, human IL-6 (human, UniProt P05231 30-212).
T1 construct: also called hIL-6
Kind of experiment: in-solution affinity, Gyrolab. On the procedure:
(§1) Fitting of the dilution series was done using Gyrolab Analysis software, where KD- and receptor-controlled curves were analyzed to determine the KD value.

In another experiment the target is T2, human TNF-α (human, UniProt P01375 77-233).
T2 construct: also called hTNF-α; recombinant soluble hTNF-α
T2 sequence (P01375 77-233 limits assumed): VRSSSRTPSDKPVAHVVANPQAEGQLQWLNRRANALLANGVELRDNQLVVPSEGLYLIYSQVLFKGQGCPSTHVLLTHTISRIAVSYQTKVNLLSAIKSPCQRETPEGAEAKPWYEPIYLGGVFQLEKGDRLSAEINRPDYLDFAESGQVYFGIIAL
Kind of experiment: in-solution affinity, Gyrolab. As to the method: as §1

“And” between values parts separate entries of the source, which are not always exact repeats. Equal values may be shown once.

B1: F027201062 (bispecific antibody)
chain: DVQLVESGGGVVQPGGSLRLSCAASGRTFSNYAMAWFRQAPGKEREFVAVISYAGGRTYYADSVKGRFTISRDNAKNTVYLQMNSLRPEDTALYYCAAVDSPLIATHPRGYDYWGQGTLVTVSSGGGGSGGGSEVQLVESGGGVVQPGGSLRLSCAASGFTFRSFGMSWVRQAPGKGPEWVSSISGSGSDTLYADSVKGRFTISRDNSKNTLYLQMNSLRPEDTALYYCTIGGSLSRSSQGTLVTVSSGGGGSGGGSEVQLVESGGGVVQPGGSLRLSCAASGFTLAYYAIGWFRQAPGKEREGVSCISGSVGTTYYADSVKGRFTISRDNAKNTVYLQMNSLRPEDTALYYCVRSSWFDCGVQGRDLGNEYDYRGQGTLVTVSSGGGGSGGGSEVQLVESGGGVVQPGGSLRLSCTASGFTFSTADMGWFRQAPGKGREFVARISGIDGTTYYDEPVKGRFTISRDNSKNTVYLQMNSLRPEDTALYYCRSPRYADQWSAYDYWGQGTLVKVSSA
notes: anti-IL-6 (17C04, 6B12), anti-HSA (ALB23002), anti-TNF-α (6C11), C-terminal alanine; produced in Pichia pastoris; also called ISVD construct F027201062; Nanobody F027201062
For the molecule B1, the dissociation constant (Kd) (commonly the free concentration of one partner at which half of the binding sites on the other are occupied at equilibrium, for simple one-to-one binding) is 7.3 pM and 5.3 pM and 3 pM with human IL-6; 5.7 pM and 5.2 pM and 9.9 pM in the experiment with human TNF-α.
